T1: Factor VIIa (purified human, Enzyme Research Laboratories) (human, UniProt P08709 61-466)
T1 sequence (looked up): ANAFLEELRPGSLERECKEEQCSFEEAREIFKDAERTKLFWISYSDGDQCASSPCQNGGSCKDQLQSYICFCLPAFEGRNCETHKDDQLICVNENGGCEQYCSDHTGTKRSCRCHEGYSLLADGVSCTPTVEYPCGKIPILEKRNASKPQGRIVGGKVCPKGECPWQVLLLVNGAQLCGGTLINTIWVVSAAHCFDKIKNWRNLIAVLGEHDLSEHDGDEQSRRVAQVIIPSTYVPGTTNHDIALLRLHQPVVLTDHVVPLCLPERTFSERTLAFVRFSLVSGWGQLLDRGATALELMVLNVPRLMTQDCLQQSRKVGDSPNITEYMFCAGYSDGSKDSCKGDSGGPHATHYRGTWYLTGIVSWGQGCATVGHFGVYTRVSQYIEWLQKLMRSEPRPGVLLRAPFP


Target: T1, Factor VIIa (purified human, Enzyme …)
Experiment: Titration of cofactor against 5 nM Factor VIIa; increase in amidolytic activity (Chromozym t-PA); no phospholipid vesicles
Experimental: After 10 min at room temperature, Chromozym t-PA was added (1 mM final) and the initial rate of substrate hydrolysis was measured at 405 nm using a microplate reader (Molecular Devices, Menlo Park, Calif.). […] Kinetic parameters were calculated using Prism 4 (GraphPad Software, San Diego, Calif.).

Row | Binder | Kd [nM]
1 | sTF-annexin V chimeric protein (other, Expressed in the E. coli periplasm from pET-22b(+), whose signal peptide is removed; also called sTF-annV; sTF-AnnV) GTTNTVAAYNLTWKSTNFKTILEWEPKPVNQVYTVQISTKSGDWKSKCFYTTDTECDLTDEIVKDVKQTYLARVFSYPAGNVESTGSAGEPLYENSPEFTPYLETNLGQPTIQSFEQVGTKVNVTVEDERTLVRRNNTFLSLRDVFGKDLIYTLYYWKSSSSGKKTAKTNTNEFLIDVDKGENYCFSVQAVIPSRTVNRKSTDSPVECMGQEKGEFREGGGGSGGGGSGGGGSAQVLRGTVTDFPGFDERADAETLRKAMKGLGTDEESILTLLTSRSNAQRQEISAAFKTLFGRDLLDDLKSELTGKFEKLIVALMKPSRLYDAYELKHALKGAGTNEKVLTEIIASRTPEELRAIKQVYEEEYGSSLEDDVVGDTSGYYQRMLVVLLQANRDPDAGIDEAQVEQDAQALFQAGELKWGTDEEKFITIFGTRSVSHLRKVFDKYMTISGFQIEETIDRETSGNLEQLLLAVVKSIRSIPAYLAETLYYAMKGAGTDDHTLIRVMVSRSEIDLFNIRKEFRKNFATSLYSMIKGDTSGDYKKALLLLCGEDDPLEHHHHHH | 7.05
2 | recombinant sTF (TF2-219) (receptor, also called soluble TF; soluble Tissue Factor) GTTNTVAAYNLTWKSTNFKTILEWEPKPVNQVYTVQISTKSGDWKSKCFYTTDTECDLTDEIVKDVKQTYLARVFSYPAGNVESTGSAGEPLYENSPEFTPYLETNLGQPTIQSFEQVGTKVNVTVEDERTLVRRNNTFLSLRDVFGKDLIYTLYYWKSSSSGKKTAKTNTNEFLIDVDKGENYCFSVQAVIPSRTVNRKSTDSPVECMGQEKGEFRE | 8.17
